# Measured values as given in article doi:10.1101/2025.11.11.687775.
# Molecular target: microtubules of primary rat hippocampal neurons (rat (endogenous in primary hippocampal neurons)) (UniProt P68370)
substance,measurement,value
"GFP-tagged Tau lacking the microtubule-binding domain (delMTBD-Tau; PRR2-WT, MTBD deleted) (from UniProt P10636-6 1-383) (natural protein)",FRAP recovery plateau in rat neurons,0.873
